The target of series [1] is T1, HIV-1 reverse transcriptase (p66/p51) (Human immunodeficiency virus 1, UniProt P04585;P04585 P04585:588-1147,P04585:588-1027). Briefly: EMSA; complex formed; competed by 100-fold excess of itself; 6 mM MgCl2, 60 mM NaCl, 40 mM Tris-HCl pH 8.3, 10 mM DTT, 37 C. Conditions: Genetics Institute (Cambridge, MA) for polymerase assays; label: 32P (CTP, internal); tRNA cloverleaf. Background: Mobility shift assays separate free from complexed probe on a gel.

Series [2] deals with MoMuLV reverse transcriptase (Moloney murine leukemia virus, UniProt P03355 P03355:660-1330). Description: EMSA; did not bind MoMuLV RT.
The target of series [3] is T1, HIV-1 reverse transcriptase (p66/p51). Briefly: EMSA; affinity similar to tRNALys3; 100-fold excess competes effectively; 6 mM MgCl2, 60 mM NaCl, pH 8.3, 37 C. The settings on record: Genetics Institute (Cambridge, MA) for polymerase assays; tRNA cloverleaf, acceptor stem restored.

B1: tRNALys3 (ssRNA)
RNA: GCCCGGAUAGCUCAGUCGGUAGAGCAUCAGACUUUUAAUCUGAGGGUCCAGGGUUCAAGUCCCUGUUCGGGCGCCA
In the case of B1, the binding result in series [1] is “binds”.

B2: tRNAtarD (ssRNA)
RNA: UAGACCAUAGCUCAGUCGGUAGAGCAUCAGACUUUUAAUCUGAGGGUCCAGGGUUCAAGUCCCUGUGGUCUAACCA
Turning to B2, the binding result in series [2] was “no binding”; in series [3] it was “binds”.

These data come from patent US6355790, “Inhibition of HIV replication using a mutated transfer RNA primer” (University of Rochester).
